Results on six molecules are retold here after paper PMC7994366, “LRRK2-phosphorylated Rab10 sequesters Myosin Va with RILPL2 during ciliogenesis blockade” (Life Science Alliance, 2021).

By Kd is commonly meant the free concentration of one partner at which half of the binding sites on the other are occupied at equilibrium, for simple one-to-one binding.

Bounds are passed on as bounds.

The target of assay [1] is His6 Myosin Va GTD (1,464–1,855) (UniProt Q9Y4I1). Nature of the assay: MST; Monolith NT.115; RED-NHS labelled His6-MyoVa GTD fixed at 100 nM, 16 serial dilutions of the unlabelled Rab/Mst3 reaction mixture (+ATP phosphorylated 2 h at 27°C; -ATP control); 50 mM Hepes pH 7.5, 5% glycerol, 150 mM NaCl, 5 mM MgCl2, 0.1 mM TCEP, GTP, 6 μM BSA, 0.01% Tween-20; 30 min in the dark at 25°C; Mst3 kinase present.

Assay [2] has as its target LRRK2-phosphorylated Rab10 (pRab10) (human (endogenous in HEK293T)) (UniProt P61026).
Assay [3] has as its target T1, His6 Myosin Va GTD (1,464–1,855) (UniProt Q9Y4I1 1464-1855, labeled with RED-NHS 2nd Generation (amine reactive) dye (NT-647)).
T1 chain: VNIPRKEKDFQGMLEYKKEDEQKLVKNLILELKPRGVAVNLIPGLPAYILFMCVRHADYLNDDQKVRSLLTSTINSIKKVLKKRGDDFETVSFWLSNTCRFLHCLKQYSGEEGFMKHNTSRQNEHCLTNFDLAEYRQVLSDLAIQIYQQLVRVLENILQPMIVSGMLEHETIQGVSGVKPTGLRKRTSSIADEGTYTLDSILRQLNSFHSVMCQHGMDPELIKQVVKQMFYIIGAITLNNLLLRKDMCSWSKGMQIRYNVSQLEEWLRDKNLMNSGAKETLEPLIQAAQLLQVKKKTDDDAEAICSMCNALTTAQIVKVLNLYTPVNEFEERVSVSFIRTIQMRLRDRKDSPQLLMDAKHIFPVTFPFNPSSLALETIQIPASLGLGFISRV
Nature of the assay: MST; unphosphorylated Rab10.

For assay [4], the target named is T1, His6 Myosin Va GTD (1,464–1,855). Nature of the assay: MST; Rab8A phosphorylated by Mst3.
Assay [5] addresses T2, His6 Myosin Va GTD (1,464–1,855) (UniProt Q9Y4I1 1464-1855, labeled with RED-NHS 2nd Generation (amine reactive) dye (NT-647)).
T2 construct: Myosin Va globular tail domain, residues 1,464-1,855; bacterial expression plasmid a gift from Amir Khan; purified as described by Berndsen et al 2019 and Waschbüsch et al 2020; the limits differ from those of the mCherry construct m3 (1,421-1,880, mouse); also called His6-MyoVa GTD; purified MyoVa GTD; source: E. coli BL21 (DE3 pLys), purified (Ni-NTA, Superdex-75)
Nature of the assay: MST; Monolith NT.115; RED-NHS labelled His6-MyoVa GTD fixed at 100 nM, 16 serial dilutions of the unlabelled Rab/Mst3 reaction mixture (+ATP phosphorylated 2 h at 27°C; -ATP control); 50 mM Hepes pH 7.5, 5% glycerol, 150 mM NaCl, 5 mM MgCl2, 0.1 mM TCEP, GTP, 6 μM BSA, 0.01% Tween-20; 30 min in the dark at 25°C; Mst3 kinase present. The conditions noted are these: both partners purified.

Assay [6] has as its target T1, His6 Myosin Va GTD (1,464–1,855). Nature of the assay: MST; unphosphorylated Rab8A.

Take “His6 Rab10-Q63L (1–181) phosphorylated in vitro by Mst3 (from UniProt P61026 1-181) (domain or fragment)”: in assay [1], the Kd worked out at 0.475 µM. In assay [2], “MyoVa GTD-mCherry (1,421–1,880) (domain or fragment)” came in with an FLIP in HeLa cells expressing R1441G LRRK2: half-time of fluorescence loss of GTD-mCherry over the region of interest against adjacent cytoplasm; dependent on kinase activity of 107 s. “full-length MyoVa mCherry (natural protein)” returned an FLIP in HeLa cells expressing R1441G LRRK2: half-time of fluorescence loss of MyoVa mCherry over the pericentriolar region of interest (adjacent cytoplasm t1/2 = 83 s; retention ameliorated by MLi-2) in assay [2] of 4.53 min.

B1: His6 Rab10-Q63L (1–181), non-phosphorylated (domain or fragment)
chain: MAKKTYDLLFKLLLIGDSGVGKTCVLFRFSDDAFNTTFISTIGIDFKIKTVELQGKKIKLQIWDTAGLERFHTITTSYYRGAMGIMLVYDITNGKSFENISKWLRNIDEHANEDVERMLLGNKCDMDDKRVVPKGKGEQIAREHGIRFFETSAKANINIEKAFLTLAEDILRKTPVKEPNS
Turning to B1, in assay [3], the Kd was greater than 18 µM.

B2: His6 Rab8A Q63L phosphorylated in vitro by Mst3 (natural protein)
chain: MAKTYDYLFKLLLIGDSGVGKTCVLFRFSEDAFNSTFISTIGIDFKIRTIELDGKRIKLQIWDTAGLERFRTITTAYYRGAMGIMLVYDITNEKSFDNIRNWIRNIEEHASADVEKMILGNKCDVNDKRQVSKERGEKLALDYGIKFMETSAKANINVENAFFTLARDIKAKMDKKLEGNSPQGSNQGVKITPDQQKRSSFFRCVLL
modifications: phosphorylated by Mst3 (residue not given)
In turn, B2 yielded a Kd in assay [4] of 6.6 µM. Further, in assay [5], the “fold weaker binding than pRab10” value was roughly 14 fold.

B3: His6 Rab8A Q63L, non-phosphorylated (natural protein)
chain: MAKTYDYLFKLLLIGDSGVGKTCVLFRFSEDAFNSTFISTIGIDFKIRTIELDGKRIKLQIWDTAGLERFRTITTAYYRGAMGIMLVYDITNEKSFDNIRNWIRNIEEHASADVEKMILGNKCDVNDKRQVSKERGEKLALDYGIKFMETSAKANINVENAFFTLARDIKAKMDKKLEGNSPQGSNQGVKITPDQQKRSSFFRCVLL
B3: in assay [6], the Kd was greater than 29 µM.
